Assay results: the supplement of paper PMC10567573

B1: PTPN9 (parent)
chain: IDFLRVVRNQQSLAVSNMGARSKG
B2: CAMK2D (parent)
chain: IVRLHDSISEEGFHYLVFDLVTGG

Variants of: B1
Assay: protein stability index of a GFP-peptide fusion (GPS, HEK-293T) (PSI 1-6); higher = more stable
Settings: c terminus: a fixed tail appended
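Further: lentivirally expressed fusions sorted by FACS into six bins by GFP to DsRed ratio, PSI derived from sequencing read proportions per bin multiplied by bin number.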

Protein stability index: each site, then its substitutions
K23: Y 1.92, C 1.88, A 2.01, Q 3.29, D 2.36, L 1.72, W 1.59, S 1.68, E 2.32, H 1.75, M 1.91, N 2.02, F 1.51, I 1.72, T 1.32, V 1.72, P 2.09, R 2.4, G 1.96
S22: Y 2.16, R 2.64, W 2.4, P 2.4, T 2.23, V 2.03, Q 2.86
G24: N 2.46, T 2.63, F 1.84, S 2.28, E 2.95, Q 2.72, R 2.48, P 2.2, I 2.3, D 2.75, H 2.27, A 2.55, Y 3.1, W 1.76, C 1.84, V 2.45, L 2.18, K 3.05, M 2.18

Variants of: B2
Assay: as above
Settings: c terminus: a fixed tail appended

Protein stability index, by site and new letter:
R3: S 1.57, P 2.28, G 2.41, V 2.23, H 3.12, C 2.03, E 2.25, Y 2.58, Q 2
V2: P 1.46, T 2.52, I 3.28, Y 3.12, D 1.79, L 2.69, K 1.51, A 2.29, E 2.3, M 1.93
E11: D 3.32, I 1.56, Y 3.26, P 2.13, F 3.42, T 2.08, N 3.39, L 3.7, A 2.79, R 3.9, Q 2.06
G12: A 2.25, E 2.48, P 2.31, S 3.25, I 2.16, N 2.04
S7: Q 2.4, E 2.24, L 2.56, H 3.68, W 2.25, T 3.19, N 3.29, Y 3.15, G 1.96, A 3.35, M 3.09
I1: G 1.94, E 2.24, M 3.44, H 3.43, K 2.05, V 2.13, F 1.06, S 3.07, N 1.75, T 2.07, P 1.25
D6: M 2.4, N 1.95, C 2.66, T 4.86, P 4.25, A 3.03
H5: Y 3.23, P 3.91, N 2.33, K 4.72, R 2.39, D 2.94, S 3.02, F 3.15, C 3.23, I 3.99
L4: Q 1.69, W 1.57, P 2.39, T 1.29, R 1.62, D 1.8, A 2.4, F 2.4, K 3.71, E 1.69, N 1.87, S 1.9, H 2.53
I8: G 1.64, T 2.61, H 3.29, E 1.44, R 1.65, Q 1.69, K 2.4, Y 3.84, C 2.85, A 2.21, P 3.04, S 3.33, N 3.02
E10: M 2.53, I 3.06, K 2.7, R 2.65, Y 2.83, N 4.11, H 3.04, F 2.4, S 2.15, T 3.29, A 3.84
S9: L 4.27, N 2.94, Y 3.58, F 1.94, E 3.35, D 2.36, Q 4.38, P 5.65, K 2.84, M 3.39, G 1.99
